Data from US20110027290A1 (Eli Lilly, published 2011).

T1: human IL-17 (human, UniProt Q16552 20-155, limits assumed)
T1 sequence: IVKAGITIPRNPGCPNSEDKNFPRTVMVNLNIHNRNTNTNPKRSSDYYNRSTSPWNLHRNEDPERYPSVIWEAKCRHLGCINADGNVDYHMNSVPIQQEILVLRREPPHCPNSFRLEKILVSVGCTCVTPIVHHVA

T2: human IL-17E (human, UniProt Q9H293 33-177)
T2 sequence (looked up): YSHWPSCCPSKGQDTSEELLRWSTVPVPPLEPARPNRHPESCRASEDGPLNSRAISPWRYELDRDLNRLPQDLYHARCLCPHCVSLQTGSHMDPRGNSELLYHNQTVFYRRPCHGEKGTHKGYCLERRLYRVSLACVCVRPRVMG

T3: human IL-17B (human, UniProt Q9UHF5 21-180)
T3 sequence (looked up): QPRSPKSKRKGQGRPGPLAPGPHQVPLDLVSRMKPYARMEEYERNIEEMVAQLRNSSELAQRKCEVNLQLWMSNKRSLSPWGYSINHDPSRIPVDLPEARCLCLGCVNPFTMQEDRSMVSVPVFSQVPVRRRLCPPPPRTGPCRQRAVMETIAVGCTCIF

T4: human IL-17D (human, UniProt Q8TAD2 18-202, limits assumed)
T4 sequence (looked up): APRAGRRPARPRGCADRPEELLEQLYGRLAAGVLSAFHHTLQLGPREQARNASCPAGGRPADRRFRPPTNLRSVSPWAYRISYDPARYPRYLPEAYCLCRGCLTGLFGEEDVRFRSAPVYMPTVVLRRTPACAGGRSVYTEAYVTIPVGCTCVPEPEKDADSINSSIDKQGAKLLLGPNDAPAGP

T5: human IL-17F (human, UniProt Q96PD4 31-163)
T5 sequence (looked up): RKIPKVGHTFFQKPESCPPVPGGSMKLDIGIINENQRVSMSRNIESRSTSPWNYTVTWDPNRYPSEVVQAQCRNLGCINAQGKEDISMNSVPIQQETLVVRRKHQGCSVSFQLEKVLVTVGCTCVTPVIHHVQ

T6: mouse IL-17 (murine, UniProt Q62386 26-158, limits assumed)
T6 construct: also called murine IL-17
T6 sequence: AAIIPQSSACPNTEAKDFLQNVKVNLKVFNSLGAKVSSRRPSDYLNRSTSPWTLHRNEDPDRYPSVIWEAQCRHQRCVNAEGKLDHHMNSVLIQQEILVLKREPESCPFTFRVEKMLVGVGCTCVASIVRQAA

T7: human IL-22 (human, UniProt Q9GZX6 34-179)
T7 construct: Negative control antigen
T7 sequence (looked up): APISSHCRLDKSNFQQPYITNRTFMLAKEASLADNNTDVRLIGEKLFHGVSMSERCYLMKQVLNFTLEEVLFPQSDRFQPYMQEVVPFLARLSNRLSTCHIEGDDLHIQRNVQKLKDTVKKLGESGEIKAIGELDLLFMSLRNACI

T8: human IL-17C (human, UniProt Q9P0M4 19-197)
T8 sequence (looked up): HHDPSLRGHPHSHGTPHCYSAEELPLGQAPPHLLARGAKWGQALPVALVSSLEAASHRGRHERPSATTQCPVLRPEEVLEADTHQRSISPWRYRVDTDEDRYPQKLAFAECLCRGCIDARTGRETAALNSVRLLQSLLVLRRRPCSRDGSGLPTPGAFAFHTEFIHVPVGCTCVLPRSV

T9: cynomolgus monkey IL-17 (cynomolgus monkey, UniProt Q16552 24-155 (human entry), limits assumed)
T9 construct: Not commercially available; cloned and expressed; also called CYNO IL-17
T9 chain: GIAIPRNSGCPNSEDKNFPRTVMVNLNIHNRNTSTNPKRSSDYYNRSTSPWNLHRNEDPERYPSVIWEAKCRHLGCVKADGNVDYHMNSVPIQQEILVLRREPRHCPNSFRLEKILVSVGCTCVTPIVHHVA


Assays:
human IL-17 [1] = biological target: T1, human IL-17; test: cell-based or functional assay
human IL-17E = biological target: T2, human IL-17E; test: ELISA, antigen coated on plate
Procedure: (§1) In an exemplary assay, ELISA plate wells (Nunc Immuno Maxisorp) are coated with 100 μl (0.5 ng/ml in 1× coating buffer (BioFx)) of IL-17 family member proteins (R&D Systems) sealed and incubated overnight at 4° C. The solution in the well is removed by flicking and blocking buffer (200 μl 1.5% BSA in PBS) is added. The plates are incubated on a rotating shaker for 30 minutes at room temperature. Then 100 μl of an antibody to be tested is added per well at varying concentrations (e.g., 2, 0.4, 0.08, 0.016, 0.0032 and 0 μg/ml). The plates are again incubated overnight (4° C.) followed by warming on a rotating shaker (60 min room temp). Each plate-well is then washed five times with buffer (1× Ish buffer, BioFX). After washing, an appropriate commercially available HRP-conjugated secondary antibody (1:2000 in PBS with 1.5% BSA) is added (100 μl/well). Plates are re-incubated on a rotating shaker (60 min. room temp.) followed by buffer washing (5×) as described above. The colorimetric signal is developed by adding TMB (100 μl/well) until saturation (approx 3-5 min.) then further development is ended by adding stop solution (100 μl/well, BioFX). The color signal is measured at 450 nm absorbance using any appropriate ELISA plate reader. The degree of binding is proportional to color signal production.

human IL-17B = biological target: T3, human IL-17B; test: ELISA, antigen coated on plate
Procedure: as §1

human IL-17D = biological target: T4, human IL-17D; test: ELISA, antigen coated on plate
Procedure: as §1

human IL-17F = biological target: T5, human IL-17F; test: ELISA, antigen coated on plate
Procedure: as §1

mouse IL-17 = biological target: T6, mouse IL-17; test: ELISA, antigen coated on plate
Procedure: as §1

human IL-22 = biological target: T7, human IL-22; test: ELISA, antigen coated on plate
Procedure: as §1

human IL-17C = biological target: T8, human IL-17C; test: ELISA, antigen coated on plate
Procedure: as §1

human IL-17 [2] = biological target: T1, human IL-17; test: SPR (BIACORE 2000), mAb captured on Protein A, IL-17 injected, 25 C, 1:1 with mass transfer model;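 also: CM4 chip with immobilized Protein A, HBS-EP running buffer pH 7.4, IL-17 titrated downward from 10 nM in twofold steps, 20 min dissociation phase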
Procedure: (§2) A BIACORE® 2000 instrument is used to measure antigen-antibody binding kinetics and affinity. The instrument utilizes the optical properties of surface plasmon resonance to detect alteration in protein concentration of interacting molecules within a dextran biosensor matrix. Except as noted, all reagents and materials are purchased from BIACORE® AB. All measurements are performed at 25° C. Samples are resuspended in HBS-EP buffer to a final concentration of 2 μg/ml (150 mM sodium chloride, 3 mM EDTA, 0.005% (w/v) surfactant P-20, and 10 mM HEPES, pH 7.4). Protein A is immobilized on flow cells 1 to 4 of a CM4 sensor chip at a level of 500 response units using an amine coupling kit.
(§3) Binding is evaluated using multiple analytical cycles. […] Association and dissociation rates for each cycle are evaluated using a “1:1 with mass transfer” binding model in the BIAevaluation software.

cynomolgus monkey IL-17 = biological target: T9, cynomolgus monkey IL-17; test: as above
Procedure: as §2, §3

[3] = biological target: New Zealand white rabbit IL-17 (rabbit); test: SPR (BIACORE 2000), mAb captured on Protein A; biphasic, heterogeneous ligand model, second of two affinities
[4] = biological target: New Zealand white rabbit IL-17 (rabbit); test: SPR (BIACORE 2000), mAb captured on Protein A; biphasic, heterogeneous ligand model, first of two affinities

New Zealand white rabbit IL-17 (rabbit), sequence (chain, as listed by the source limits assumed, form in doubt): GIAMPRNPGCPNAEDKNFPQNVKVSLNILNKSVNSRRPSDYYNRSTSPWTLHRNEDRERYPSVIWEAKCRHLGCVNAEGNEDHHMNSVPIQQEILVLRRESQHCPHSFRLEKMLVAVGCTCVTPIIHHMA

Molecule | Kd (human IL-17 [2]) [pM] | koff (human IL-17 [2]) [s⁻¹] | kon (human IL-17 [2]) [M⁻¹ s⁻¹] | Kd (cynomolgus monkey IL-17) [pM] | koff (cynomolgus monkey IL-17) [s⁻¹] | kon (cynomolgus monkey IL-17) [M⁻¹ s⁻¹] | Kd [3] [pM] | koff [3] [s⁻¹] | kon [3] [M⁻¹ s⁻¹] | Kd [4] [pM] | koff [4] [s⁻¹] | kon [4] [M⁻¹ s⁻¹] | also measured
IgG4 negative control (antibody) | – | – | – | – | – | – | – | – | – | – | – | – | AVG GROα, pg/ml at 2.56 pM antibody (60 ng/ml IL-17, HT-29 cells) (human IL-17 [1]): 1240 pg/ml; AVG GROα, pg/ml at 12.8 pM antibody (60 ng/ml IL-17, HT-29 cells) (human IL-17 [1]): 1350 pg/ml; AVG GROα, pg/ml at 64.0 pM antibody (60 ng/ml IL-17, HT-29 cells) (human IL-17 [1]): 1380 pg/ml; AVG GROα, pg/ml at 320.0 pM antibody (60 ng/ml IL-17, HT-29 cells) (human IL-17 [1]): 1390 pg/ml; AVG GROα, pg/ml at 1,600.0 pM antibody (60 ng/ml IL-17, HT-29 cells) (human IL-17 [1]): 1370 pg/ml; AVG GROα, pg/ml at 8,000.0 pM antibody (60 ng/ml IL-17, HT-29 cells) (human IL-17 [1]): 1420 pg/ml; AVG GROα, pg/ml at 40,000.0 pM antibody (60 ng/ml IL-17, HT-29 cells) (human IL-17 [1]): 1300 pg/ml
Fab 121 (Fab, V domains shown, constant domains are not specified) VH: QVQLVQSGAEVKKPGSSVKVSCKASGYSFTDYHISWVRQAPGQGLEWMGVINPEYGTTDYNQRFKGRVTITADESTSTAYMELSSLRSEDTAVYYCARYDYFTGTGAYWGQGTLVTVSS VL: DIVMTQTPLSLSVTPGQPASISCRSSQSLKHSRGNTFLHWYLQKPGQSPQLLIYKVSNRFIGVPDRFSGSGSGTDFTLKISRVEAEDVGVYYCSQSTHYPFTFGQGTKLEIK | – | – | – | – | – | – | – | – | – | – | – | – | binding result (human IL-17E): no binding; binding result (human IL-17B): no binding; binding result (human IL-17D): no binding; binding result (human IL-17F): no binding; binding result (mouse IL-17): no binding; binding result (human IL-22): no binding; binding result (human IL-17C): no binding
mAb 131 (full-length, IgG4 Fc region) (antibody, V domains shown) VH: QVQLVQSGAEVKKPGSSVKVSCKASGYSFTDYHIHWVRQAPGQGLEWMGVINPEYGTTDYNQRFKGRVTITADESTSTAYMELSSLRSEDTAVYYCARYDYFTGTGVYWGQGTLVTVSS VL: DIVMTQTPLSLSVTPGQPASISCRSSKSLVHSRGNTYLHWYLQKPGQSPQLLIYKVSNRFIGVPDRFSGSGSGTDFTLKISRVEAEDVGVYYCSQSTHYPFTFGQGTKLEIK | 2.9 | 1.6e-05 | 5.4e+06 | – | – | – | – | – | – | – | – | – | –
mAb 126 (full-length, IgG4 Fc region) (antibody, V domains shown, Full-length mAb with an IgG4 Fc region) VH: QVQLVQSGAEVKKPGSSVKVSCKASGYSFTDYHIHWVRQAPGQGLEWMGVINPMYGTTDYNQRFKGRVTITADESTSTAYMELSSLRSEDTAVYYCARYDYFTGTGVYWGQGTLVTVSS VL: DIVMTQTPLSLSVTPGQPASISCRSSRSLVHSRGNTYLHWYLQKPGQSPQLLIYKVSNRFIGVPDRFSGSGSGTDFTLKISRVEAEDVGVYYCSQSTHLPFTFGQGTKLEIK | – | – | – | 0.8 | – | – | – | – | – | – | – | – | IC50, IL-17-induced GROα secretion from HT-29 cells (human IL-17 [1]): ~560 pM
Fab 126 (Fab, V domains shown, constant domains are not specified) VH: QVQLVQSGAEVKKPGSSVKVSCKASGYSFTDYHIHWVRQAPGQGLEWMGVINPMYGTTDYNQRFKGRVTITADESTSTAYMELSSLRSEDTAVYYCARYDYFTGTGVYWGQGTLVTVSS VL: DIVMTQTPLSLSVTPGQPASISCRSSRSLVHSRGNTYLHWYLQKPGQSPQLLIYKVSNRFIGVPDRFSGSGSGTDFTLKISRVEAEDVGVYYCSQSTHLPFTFGQGTKLEIK | – | – | – | – | – | – | – | – | – | – | – | – | binding result (human IL-17E): no binding; binding result (human IL-17B): no binding; binding result (human IL-17D): no binding; binding result (mouse IL-17): no binding; binding result (human IL-22): no binding; binding result (human IL-17C): no binding
mAb 118 (full-length, IgG4 Fc region) (antibody, V domains shown) VH: QVQLVQSGAEVKKPGSSVKVSCKASGYSFTDYHISWVRQAPGQGLEWMGVINPMYGTTDYNQRFKGRVTITADESTSTAYMELSSLRSEDTAVYYCARYDYYTGTGVYWGQGTLVTVSS VL: DIVMTQTPLSLSVTPGQPASISCRSSQSLVHSRGNTFLHWYLQKPGQSPQLLIYKVSNRFIGVPDRFSGSGSGTDFTLKISRVEAEDVGVYYCSQSTHYPFTFGQGTKLEIK | 3.9 | 2e-05 | 5e+06 | – | – | – | – | – | – | – | – | – | –
mAb 103 (full-length, IgG4 Fc region) (antibody, V domains shown, also called full-length mAb 103) VH: QVQLVQSGAEVKKPGSSVKVSCKASGYSFTDYHIHWVRQAPGQGLEWMGVINPEYGTTDYNQRFKGRVTITADESTSTAYMELSSLRSEDTAVYYCARYDYFTGTGAYWGQGTLVTVSS VL: DIVMTQTPLSLSVTPGQPASISCRSSQSLRHSRGNTYLHWYLQKPGQSPQLLIYKVSNIFSGVPDRFSGSGSGTDFTLKISRVEAEDVGVYYCSQSTHYPFTFGQGTKLEIK | 1.4 | 1.5e-05 | 1.1e+07 | 1.3 | 1.1e-05 | 8.8e+06 | 18100 | 0.192 | 1.06e+07 | 2000 | 0.00036 | 180000 | –
mAb 104 (full-length, IgG4 Fc region) (antibody, V domains shown, also called full-length mAb 104) VH: QVQLVQSGAEVKKPGSSVKVSCKASGYSFTDYHIHWVRQAPGQGLEWMGVINPEYGTTDYNQRFKGRVTITADESTSTAYMELSSLRSEDTAVYYCARYDYFTGTGAYWGQGTLVTVSS VL: DIVMTQTPLSLSVTPGQPASISCRSSKSLVHSRGNTFLHWYLQKPGQSPQLLIYKVSTRFSGVPDRFSGSGSGTDFTLKISRVEAEDVGVYYCSQSTHYPFTFGQGTKLEIK | 1.7 | 1.1e-05 | 7.7e+06 | 0.5 | 5e-06 | 9.4e+06 | 20000 | 0.07 | 4e+06 | 1900 | 0.00018 | 100000 | –
mAb 121 (full-length, IgG4 Fc region) (antibody, V domains shown, Full-length mAb with an IgG4 Fc region) VH: QVQLVQSGAEVKKPGSSVKVSCKASGYSFTDYHISWVRQAPGQGLEWMGVINPEYGTTDYNQRFKGRVTITADESTSTAYMELSSLRSEDTAVYYCARYDYFTGTGAYWGQGTLVTVSS VL: DIVMTQTPLSLSVTPGQPASISCRSSQSLKHSRGNTFLHWYLQKPGQSPQLLIYKVSNRFIGVPDRFSGSGSGTDFTLKISRVEAEDVGVYYCSQSTHYPFTFGQGTKLEIK | 1.6 | 1.5e-05 | 1e+07 | 1.1 | 7e-06 | 7.8e+06 | 1500 | 0.021 | 1.7e+07 | 510 | 0.0004 | 800000 | decrease of the mean mouse KC level after human IL-17 injection in mice, 20 µg/mouse, compared to a control antibody (human IL-17 [1]): ~3 fold
